Source: the RNAGym collection of RNA variant scans (doi:10.1093/nar/gkz1192)

B1: CPEB3 Ribozyme (parent)
chain: UAACAGGGGGCCACAGCAGAAGCGUUCACGUCGCAGCCCCUGUCAGAUUCUGGUGAAUCUGCGAAUUCUGCUGUAUAUCUC

Variants of: B1
Assay: self-cleavage, relative activity (ratio to wild type); higher = more cleavage; in vitro, sequencing
Procedure, shortened: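 Libraries of CPEB3 self-cleaving ribozyme mutants came from rounds of error-prone PCR and carried barcodes, which DNA sequencing matched to variants. In vitro transcription used T7 RNA polymerase at 37°C for 5 hours, with a further 15 min in DNase I before EDTA stopped the reaction; the ribozymes cleaved during both steps. The RNA was reverse transcribed with template switching and sequenced on Illumina. Relative activity is the cleaved/total read fraction of a variant divided by that of the unmutated ribozyme, averaged over three batches with at least 5 reads.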

Variant	self-cleavage
A2G C59G	0.24
A2C U31C	0.63
A2G G30A	0.39
A2G G30U	0.69
U1C A77G	0.91
U1C A77U	0.97
U1G U41C	1.01
U1G U41A	0.3
A2G G61A	0.31
A2G G19A	0.58
A2G G19U	0.89
A2C U76C	1.02
A2G C81U	0.81
A2G C34G	0.1
A2G C34U	0.29
U1G G63U	0.81
A2C G52A	1.02
A2C U25C	0.49
A2C A64G	0.74
A2C A64U	0.21
U1C C14U	1.07
U1G U74C	1.13
A2G U78A	0.75
A2G U78C	0.58

Variant	self-cleavage
U1C U76C	0.8
U1C U76A	0.78
A2G A45G	0.45
A2G A45C	0.5
A2G A45U	0.44
A2G U72G	0.42
A2G U72C	0.74
A2G U72A	0.36
U1C G63A	0.84
U1C A75U	1.05
U1C A75G	0.79
U1C U43A	1.1
U1C U43C	0.57
U1C C11G	0.43
U1C C11U	0.36
A2C U26C	0.55
A2G G6A	0.59
A2G G6U	0.68
U1C U48A	0.16
U1C U48C	0.41
U1C A45C	0.16
U1C A45G	0.81
U1C A45U	0.39
U1G A5U	0.98

Variant	self-cleavage
U1C C37A	0.16
U1C C37U	0.37
U1C A28G	0.55
U1C A28U	0.67
U1C G10A	0.23
U1C G10C	0.17
U1G A2G	0.95
U1C U58C	0.63
U1C U58A	0.46
U1C U41G	0.53
U1C U41C	0.87
U1C U41A	0.21
A2G G70A	0.16
A2G U58C	0.25
U1G U69A	0.65
U1C G30C	0.14
A2U A3G	0.99
A2C U51G	0.92
A2C U51A	0.7
U1C C50A	0.61
U1G C38A	0.48
A2G C39A	0.09
A2C A15G	0.69
A2C A15U	0.5

Variant	self-cleavage
A2G A65G	0.29
A2G A65U	0.38
U1G A18G	0.61
A2G G22A	0.22
A2G G22U	0.07
U1C U60A	0.42
U1C U60C	0.39
A2G U51A	0.64
A2G U51C	0.34
A2G U51G	0.79
U1C U25C	0.32
U1C U25G	0.22
U1C U25A	0.37
A2C A65G	0.46
A2G A35G	1.21
A2G A35U	0.37
A2G C11U	0.51
A2G C11G	0.15
A2G C27A	0.36
A2G C27U	0.4
U1C A56G	0.73
U1C A56U	0.52
U1C C62U	0.32
U1C G16A	0.08

Variant	self-cleavage
U1C A20U	0.29
U1C A20G	0.59
U1C G53U	0.72
U1C G53A	0.98
A2G U80A	0.77
A2G U80G	0.17
A2G U80C	0.69
U1G U78C	0.82
A2G G7U	0.42
U1G U80A	1.08
A2C A28G	0.51
U1C G33A	0.32
U1C G73U	1.08
U1G C27A	0.43
U1G U26C	0.4
A2G A5G	0.73
A2G A5U	0.8
A2G A5C	0.94
A2G C29U	0.24
A2G C29A	0.13
U1C C34A	0.12
U1C C34U	0.24
A2G G52C	0.83
A2G G52A	0.65

Variant	self-cleavage
A2G G52U	0.77
A2G U69C	0.32
A2G U69G	0.46
A2G U69A	0.33
A2C G61A	0.48
A2G A77C	0.54
A2G A77U	0.62
A2G A77G	0.64
A2C A77G	1.01
A2G G9A	0.28
A2G G9U	0.42
A2G U26C	0.4
A2G U26A	0.53
A2G U26G	0.18
A2G G63U	0.62
A2G G46A	0.28
A2G G46U	0.3
U1C U67G	0.22
U1C U67A	0.4
U1C U67C	0.26
U1G U72A	0.71
U1G U72C	1
A2C U49C	0.42
A2C A5G	0.86

Variant	self-cleavage
A2C U67C	0.36
A2G C38U	0.68
U1C A57G	0.85
U1C A64U	0.26
U1C A64G	0.8
A2C C23U	0.25
U1C G8A	0.34
U1C G8U	0.39
A2C U66C	0.4
A2G A13G	0.59
A2G A13U	0.91
U1C G36C	0.2
U1C G36A	0.21
U1C G42A	0.45
U1C C40A	0.18
U1C C40U	0.3
U1C U66C	0.39
A2G U54G	0.51
A2G U54C	0.58
A2G U54A	0.66
A2G U76C	0.73
A2G U76A	0.73
A2G C71U	0.24
